From US20100248978, “METHOD FOR IDENTIFYING THE INTERACTION PARTNER OF AN ACTIVE AGENT” (Bayer Cropscience AG, published 2010) come the findings set out here.

Holding throughout (conditions): tags: His-tag; biotinylated in the SELEX runs
The target in data set [1] is T1, p-hydroxyphenylpyruvate dioxygenase (HPPD) (Arabidopsis thaliana, UniProt P93836 P93836:1-445).
T1 sequence: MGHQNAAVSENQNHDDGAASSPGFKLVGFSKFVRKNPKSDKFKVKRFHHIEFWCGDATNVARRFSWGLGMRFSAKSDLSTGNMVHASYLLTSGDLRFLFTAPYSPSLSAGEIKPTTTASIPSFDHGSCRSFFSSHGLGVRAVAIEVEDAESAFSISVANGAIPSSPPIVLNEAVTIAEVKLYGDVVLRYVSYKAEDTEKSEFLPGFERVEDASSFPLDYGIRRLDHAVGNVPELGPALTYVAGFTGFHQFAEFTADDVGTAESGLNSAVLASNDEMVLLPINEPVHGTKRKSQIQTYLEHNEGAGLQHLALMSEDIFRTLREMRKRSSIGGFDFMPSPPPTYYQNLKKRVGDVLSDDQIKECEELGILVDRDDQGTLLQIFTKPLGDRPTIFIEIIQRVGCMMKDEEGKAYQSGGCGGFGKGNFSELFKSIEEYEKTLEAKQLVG
In words: filter; 20 mM Hepes pH 7.4, 150 mM NaCl, 3 mM MgCl2. An excerpt:
The T7-RNA polymerase promoter is underlined. The double stranded DNA template was used to transcribe the initial RNA library. The procedures to produce an RNA library and to perform a SELEX experiment are well known to a person skilled in the art and described in, e.g., Methods in Enzymology, Vol 267, Combinatorial Chemistry (1996), Abelson J. N. and Simon M. I., eds. Academic Press, San Diego. Subsequently, the complexes between target and RNA were captured on streptavidin-coated beads and unbound RNA was removed by washing with binding buffer. The bound RNA molecules were eluted by heating to 95° C. and amplified by RT-PCR and in vitro transcription before starting the next selection cycle. A nitrocellulose filter retention assay was used to determine binding of selected, radioactively labelled RNA libraries to recombinant protein (Methods in Enzymology, Vol 267, Combinatorial Chemistry, (1996), Abelson J. N. and Simon M. I., eds. Academic Press, San Diego). RNA library (−80 nM) was incubated with increasing concentrations of target protein in binding buffer and subsequently filtered through nitrocellulose filters which bind to proteins but not to RNA molecules. RNA bound to the target protein is retained within the complex on the filter and was quantified by a phosphoimager. Values were calculated as the percentage of total radiolabeled RNA in the reaction. […]

For data set [2], the target named is T1, p-hydroxyphenylpyruvate dioxygenase …. Put plainly: FP; nitrocellulose filter retention (method is filter binding). As to the method: (§1) The bound RNA molecules were eluted by heating to 95° C. and amplified by RT-PCR and in vitro transcription before starting the next selection cycle. A nitrocellulose filter retention assay was used to determine binding of selected, radioactively labelled RNA libraries to recombinant protein (Methods in Enzymology, Vol 267, Combinatorial Chemistry, (1996), Abelson J. N. and Simon M. I., eds. Academic Press, San Diego). RNA library (−80 nM) was incubated with increasing concentrations of target protein in binding buffer and subsequently filtered through nitrocellulose filters which bind to proteins but not to RNA molecules. RNA bound to the target protein is retained within the complex on the filter and was quantified by a phosphoimager. Values were calculated as the percentage of total radiolabeled RNA in the reaction.
(§2) To determine the binding properties of individual aptamers isolated as part of the mixture of aptamers binding to HPPD in the previous example, aptamers were cloned into a vector, and 24 clones were sequenced. […]

Data set [3] has the same target. Put plainly: filter; nitrocellulose filter retention. As to the method:
as §1, §2

B1: S115A-C1 (ssRNA)
RNA: GGGAGAGGAGGGAGAUAGAUAUCAACAAUGACUAGCCGUGUAAGUGGUCUCGUACAUCCGAAAAAGACGACCCAGUUUGUCCUCACGGUGGAUGG
The term Kd denotes a measure of binding affinity in units of concentration. Read a low Kd as tighter binding. Turning to B1, the Kd in data set [1] was found to be 128 nM. That is a sub-micromolar value.

B2: S116D-C8 (ssRNA)
RNA: GGGAGAGGAGGGAGAUAGAUAUCAAUAAAGUCGGUGACACCACGCAUCCAAAUACCGGUACGCGGAACUAAUAGUUUGUCCUCACGGUGGAUGG
Take B2: the Kd in data set [2] came to 120 nM.

B3: S116B-C4 (ssRNA)
RNA: GGGAGAGGAGGGAGAUAGAUAUCAAGUAACAAAUGAUACUUUCCAAGCAUAAUUCAUUCGCAGCCCGAAUUAAGUUUGUCCUCACGGUGGAUGG
In turn, B3 yielded a Kd in data set [3] of 740 nM.

B4: S116C-C18 (ssRNA)
RNA: GGGAGAGGAGGGAGAUAGAUAUCAAUAUCGCCACGUUACGAGUACCAAGCUUUAUUUCCGCAGCCCGAUAGAGUUUGUCCUCACGGUGGAUGG
In data set [3], B4 showed a Kd of 832 nM.
